Measurements as given in the supplement of paper PMC9732359.
± gives the uncertainty stated by the source.

Test: protein stability index of a GFP-peptide fusion (yeast GPS) (PSI 1-4); higher = more stable; sorted into four equal gates, so the index is relative within each strain
Procedure, shortened: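 Peptides tiling yeast proteins in 17-residue segments were fused downstream of GFP, with Cherry expressed from the same plasmid. As a pooled library in yeast, mid-log cultures grown in leucine-free medium were sorted into four equal gates by GFP/Cherry fluorescence ratio. Gate plasmids were PCR-amplified and Illumina-sequenced, and barcodes linked reads to strains. Each peptide received a protein stability index equal to the sum of each gate's read frequency times its gate number.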

| Sequence | protein stability index (doa10∆) | protein stability index (pdr5∆) | protein stability index (san1∆) | protein stability index (ubr1∆) |
| --- | --- | --- | --- | --- |
| KKRNMPLQSIPEIGNRK [SWI1] | 2.62 ± 0.041 | 2.67 ± 0.037 | 2.81 ± 0.038 | 2.63 ± 0.033 |
| KKRSKVRKETYSSYIYK [HTB2] | 3.15 ± 0.074 | 3.33 ± 0.066 | 3.14 ± 0.071 | 3.38 ± 0.052 |
| KKVASANATAAESDVAK [RPL16A] | 3.08 ± 0.054 | 3.04 ± 0.065 | 3.1 ± 0.036 | 3.02 ± 0.038 |
| KKVLEIDFFKTDDSFED [BRN1] | 2.09 ± 0.041 | 2.08 ± 0.055 | 2.46 ± 0.058 | 2.18 ± 0.042 |
| KLAFGLTKLNEDDLVGV [TAF14] | 2.94 ± 0.092 | 3.15 ± 0.072 | 3.25 ± 0.054 | 3 ± 0.057 |
| KLEEESKRGNDKKHFNN [RPC53] | 3.34 ± 0.098 | 3.15 ± 0.094 | 3.17 ± 0.094 | 3.28 ± 0.08 |
| KLEGSENSEPPALESSP [SNF2] | 3.09 ± 0.073 | 2.97 ± 0.064 | 3.28 ± 0.071 | 3.26 ± 0.057 |
| KLFNRIVERETNWIIYP [CSN12] | 2.81 ± 0.19 | 3.48 ± 0.24 | 2.85 ± 0.21 |  |
| KLHHDLKLCLGDHSSVP [YMR129W/POM152] | 2.83 ± 0.058 | 3.09 ± 0.054 | 2.95 ± 0.053 | 2.96 ± 0.042 |
| KLIEKKSAYANTEKDYK [SMC2] | 2.71 ± 0.057 | 2.59 ± 0.059 | 2.83 ± 0.053 | 2.88 ± 0.045 |
| KLKHMVLDKMHARARGP [RET1] | 2.69 ± 0.094 | 2.84 ± 0.084 | 2.47 ± 0.067 | 2.65 ± 0.06 |
| KLLFDHDELDMNECIAD [ESC2] |  |  | 1.03 ± 0.22 |  |
| KLLKIPKFISEALAFTS [YDL116W/NUP84] | 2.32 ± 0.093 | 2.46 ± 0.086 | 2.24 ± 0.1 | 2.75 ± 0.05 |
| KLLKVCLTMFEDRNESV [ECM29] | 2.41 ± 0.14 | 1.99 ± 0.27 | 2.58 ± 0.078 | 2.66 ± 0.16 |
| KLLSLLRSKTSAGRIES [SIR4] | 2.11 ± 0.082 | 2.17 ± 0.087 | 2.42 ± 0.15 | 2.36 ± 0.12 |
| KLMDEDSVATVIEVIET [YJR042W/NUP85] | 2.85 ± 0.13 | 3.02 ± 0.16 | 2.51 ± 0.11 | 2.98 ± 0.15 |
| KLNQKYDIVKFLTVSKL [GRR1] | 1.76 ± 0.037 | 1.99 ± 0.03 | 2.06 ± 0.052 | 2.04 ± 0.026 |
| KLQENRTLLTEEIEPKL [SMC2] | 2.91 ± 0.2 | 3.29 ± 0.18 | 2.76 ± 0.15 | 3.19 ± 0.14 |
| KLQGLYENIPIYATFLN [YDL116W/NUP84] | 1.32 ± 0.063 | 1.25 ± 0.058 | 1.22 ± 0.14 | 1.13 ± 0.059 |
| KLQSWDKVSSCFPQYVN [NNF1] | 1.42 ± 0.099 | 1.94 ± 0.09 | 1.45 ± 0.15 | 2.68 ± 0.1 |
| KLRDHEPDLESQISKAE [SMC4] | 2.07 ± 0.13 | 1.31 ± 0.21 | 3.16 ± 0.16 |  |
| KLSDIFLSKPSKALYPD [SNF2] | 2.53 ± 0.041 | 2.84 ± 0.049 | 2.61 ± 0.042 | 2.7 ± 0.041 |
| KLVRDAFALAKEKAPTI [RPT5] | 2.56 ± 0.072 | 2.49 ± 0.09 | 2.94 ± 0.083 | 3.08 ± 0.083 |
| KLVTYIVKFKQKEEGRS [YLR335W/NUP2] | 3.1 ± 0.06 | 3.1 ± 0.067 | 3.33 ± 0.044 | 3.34 ± 0.051 |
| KLYDAKRYTSEGTRNRF [YMR129W/POM152] | 3.02 ± 0.098 | 3.15 ± 0.087 | 3.23 ± 0.058 | 3.02 ± 0.055 |
| KMATDNKINSRNSWNFA [BRN1] |  | 2.94 ± 0.12 |  | 1.92 ± 0.12 |

| Sequence | protein stability index (doa10∆) | protein stability index (pdr5∆) | protein stability index (san1∆) | protein stability index (ubr1∆) |
| --- | --- | --- | --- | --- |
| KMDFSSKEGQYKAKIKE [YIL149C/MLP2] | 3.2 ± 0.074 | 3.27 ± 0.071 | 3.17 ± 0.063 | 3.16 ± 0.048 |
| KMLNEFVKKTSEEIDSL [SMC2] | 2.61 ± 0.099 | 3.19 ± 0.15 |  | 3.09 ± 0.12 |
| KMLSCAGADRLQQGMRG [RPL10] | 3.43 ± 0.12 | 3.28 ± 0.13 | 2.98 ± 0.11 | 3.32 ± 0.085 |
| KNDLFVIWSEDNDEKLI [RPO21] | 2.83 ± 0.077 | 2.55 ± 0.096 | 3.1 ± 0.045 | 2.44 ± 0.089 |
| KNEKLKFQETLLRQKIE [ISW2] | 1.36 ± 0.11 | 1.37 ± 0.13 | 1.16 ± 0.15 | 1.15 ± 0.071 |
| KNGVIPEESKGSFKYIT [SWP82] | 3.03 ± 0.05 | 3.09 ± 0.067 | 2.96 ± 0.047 | 3.18 ± 0.052 |
| KNIPKTRYNRDYMLSMA [SNU114] | 1.94 ± 0.054 | 2.4 ± 0.054 | 2.9 ± 0.056 | 1.87 ± 0.039 |
| KNKENNTFTWNHSLQHQ [RPN4] | 2.37 ± 0.083 | 2.34 ± 0.096 | 2.25 ± 0.067 | 1.95 ± 0.046 |
| KNLQRESCEDILDLKEF [RTT102] | 3.59 ± 0.21 | 3.31 ± 0.13 | 3.17 ± 0.28 | 3.45 ± 0.16 |
| KNNNGDEKNKNNNEDNE [MED2] | 3.23 ± 0.12 | 3.17 ± 0.11 | 2.87 ± 0.11 | 3.15 ± 0.11 |
| KNNNNANNNGSNLQRAQ [GAL11] | 3.38 ± 0.13 |  | 3.28 ± 0.14 | 3.02 ± 0.11 |
| KNNSSIRNVIMSASNAN [SRB8] | 1.59 ± 0.037 | 2.13 ± 0.053 | 1.88 ± 0.095 | 1.75 ± 0.044 |
| KNPHDIIEGINAGEIEI [RPL12A] | 2.66 ± 0.075 | 2.44 ± 0.075 | 2.22 ± 0.096 | 2.34 ± 0.06 |
| KNQLRDWIRFVSIRQNQ [RPL22B] | 1.51 ± 0.1 | 1.64 ± 0.061 |  | 1.29 ± 0.091 |
| KNSRVELQKIYDRHQSS [SMC4] | 3.46 ± 0.098 | 3.01 ± 0.15 | 3.37 ± 0.11 | 3.14 ± 0.11 |
| KNYDATDKPFSSTQDVI [CSI1] | 2.37 ± 0.13 | 2.96 ± 0.1 | 2.85 ± 0.088 | 3.06 ± 0.086 |
| KPKAVARKSKEEREAAA [RPC53] | 2.57 ± 0.19 | 3.12 ± 0.1 | 2.61 ± 0.15 | 2.64 ± 0.17 |
| KPLADLRPLFTRYELYI [YLR335W/NUP2] | 2.4 ± 0.048 | 2.04 ± 0.04 | 2.09 ± 0.073 | 2.02 ± 0.029 |
| KPNNTANTGGGLFGANS [YGL172W/NUP49] | 3.16 ± 0.14 | 3.28 ± 0.089 | 3.03 ± 0.072 | 3.08 ± 0.089 |
| KPNQTIMVLDASIGQAA [SRP54] | 2.44 ± 0.095 | 2.65 ± 0.075 | 2.69 ± 0.07 | 2.64 ± 0.049 |
| KPSFSFGVPNSSKNETS [YLR335W/NUP2] | 2.13 ± 0.077 | 1.64 ± 0.082 | 2.46 ± 0.098 | 1.5 ± 0.059 |
| KPYVDRFAFSVIWELDD [DIS3] | 1.93 ± 0.046 | 1.98 ± 0.047 | 2.15 ± 0.05 | 2.38 ± 0.034 |
| KQDCVDWFTYSYFYRRI [BRR2] | 1.69 ± 0.036 | 1.32 ± 0.032 | 1.51 ± 0.053 | 1.41 ± 0.029 |
| KQDEKKSSELELQKLVH [SMC2] | 3.23 ± 0.13 | 3.5 ± 0.097 | 3.4 ± 0.071 | 3.35 ± 0.051 |
| KQENSSRFTNVSVIAPE [YMR153W/NUP53] | 2.71 ± 0.065 | 2.54 ± 0.055 | 1.59 ± 0.062 | 2.49 ± 0.033 |
| KQFVVDVLHPNRANVSK [RPS24A] | 2.94 ± 0.073 | 3.24 ± 0.082 | 2.96 ± 0.079 | 3.07 ± 0.05 |
